Test results reported in publication PMC9482650, “Quantitative fragmentomics allow affinity mapping of interactomes” (Nature Communications, 2022).

Assays:
Test in all cases: holdup assay
Parameters in all cases: key: below the threshold = too weak to quantify, mostly under pKd 3.1 to 4
PTPN3, P26045 = biological target: PTPN3, P26045
DFNB31_2, Q9P202 = biological target: T1, DFNB31_2, Q9P202
T1 sequence (Q9P202 274-371, limits assumed, looked up): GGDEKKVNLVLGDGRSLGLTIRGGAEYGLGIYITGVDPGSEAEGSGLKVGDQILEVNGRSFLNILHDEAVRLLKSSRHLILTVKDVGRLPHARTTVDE

GORASP2, Q9H8Y8 = biological target: GORASP2, Q9H8Y8
SYNJ2BP, P57105 = biological target: T2, SYNJ2BP, P57105
T2 sequence (P57105 8-110, limits assumed, looked up): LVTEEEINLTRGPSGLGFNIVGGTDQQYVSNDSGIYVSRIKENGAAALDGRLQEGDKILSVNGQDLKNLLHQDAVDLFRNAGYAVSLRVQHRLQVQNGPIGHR

NHERF4_4, Q86UT5 = biological target: NHERF4_4, Q86UT5
DLG3_1, Q92796 = biological target: T3, DLG3_1, Q92796
T3 sequence (Q92796 125-227, limits assumed, looked up): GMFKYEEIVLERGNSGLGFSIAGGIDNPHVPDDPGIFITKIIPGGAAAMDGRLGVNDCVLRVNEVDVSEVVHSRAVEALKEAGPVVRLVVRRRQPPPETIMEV

GRIP1_3, Q9Y3R0 = biological target: T4, GRIP1_3, Q9Y3R0
T4 sequence (Q9Y3R0 247-346, limits assumed, looked up): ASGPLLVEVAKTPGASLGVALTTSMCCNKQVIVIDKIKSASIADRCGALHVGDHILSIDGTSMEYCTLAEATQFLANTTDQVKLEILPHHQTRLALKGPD

MAGI1_2, Q96QZ7 = biological target: MAGI1_2, Q96QZ7
TJP1_2, Q07157 = biological target: TJP1_2, Q07157
PDZRN4_1, Q6ZMN7 = biological target: PDZRN4_1, Q6ZMN7
HTRA2, O43464 = biological target: HTRA2, O43464
GRIP2_5, Q9C0E4 = biological target: GRIP2_5, Q9C0E4
LNX1_1, Q8TBB1 = biological target: LNX1_1, Q8TBB1
IL16_1, Q14005 = biological target: IL16_1, Q14005
Inadl_8, Q8NI35 = biological target: Inadl_8, Q8NI35
APBA2_2, Q99767 = biological target: T5, APBA2_2, Q99767
T5 sequence (Q99767 654-744, limits assumed, looked up): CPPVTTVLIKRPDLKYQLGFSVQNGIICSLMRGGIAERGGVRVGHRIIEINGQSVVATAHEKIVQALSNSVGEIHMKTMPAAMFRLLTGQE

TX1BP3, O14907 = biological target: T6, TX1BP3, O14907
T6 sequence (O14907 10-122, limits assumed, looked up): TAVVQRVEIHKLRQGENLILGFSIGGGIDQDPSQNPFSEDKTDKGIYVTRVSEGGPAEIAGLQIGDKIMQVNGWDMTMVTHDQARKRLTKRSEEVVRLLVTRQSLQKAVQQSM

CASK, O14936 = biological target: CASK, O14936
PDZD7_3, Q9H5P4 = biological target: T7, PDZD7_3, Q9H5P4
T7 sequence (Q9H5P4 857-944, limits assumed, looked up): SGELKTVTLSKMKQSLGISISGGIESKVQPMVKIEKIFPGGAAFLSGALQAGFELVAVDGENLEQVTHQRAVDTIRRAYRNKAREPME

SNTG1, Q9NSN8 = biological target: T8, SNTG1, Q9NSN8
T8 sequence (Q9NSN8 52-150, limits assumed, looked up): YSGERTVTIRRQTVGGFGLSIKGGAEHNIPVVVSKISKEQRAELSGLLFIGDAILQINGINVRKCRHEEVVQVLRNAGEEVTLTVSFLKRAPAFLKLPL

IL16_3, Q14005 = biological target: IL16_3, Q14005
GRID2IP_1, A4D2P6 = biological target: GRID2IP_1, A4D2P6
GORASP1, Q9BQQ3 = biological target: GORASP1, Q9BQQ3
MPDZ_10, O75970 = biological target: T9, MPDZ_10, O75970
T9 sequence (O75970 1624-1722, limits assumed, looked up): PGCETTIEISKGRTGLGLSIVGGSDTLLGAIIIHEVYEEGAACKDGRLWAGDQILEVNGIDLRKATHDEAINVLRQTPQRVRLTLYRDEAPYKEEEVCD

DLG4_3, P78352 = biological target: DLG4_3, P78352
FRMPD2_3, Q68DX3 = biological target: FRMPD2_3, Q68DX3
MPDZ_5, O75970 = biological target: T10, MPDZ_5, O75970
T10 sequence (O75970 695-796, limits assumed, looked up): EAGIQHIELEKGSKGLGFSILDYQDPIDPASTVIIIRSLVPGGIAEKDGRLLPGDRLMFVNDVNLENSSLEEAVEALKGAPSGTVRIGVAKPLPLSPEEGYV

GRIP2_3, Q9C0E4 = biological target: GRIP2_3, Q9C0E4
[1] = plain residues with an end cap or a label only (N-terminal biotin on a linker: ttds)
[2] = plain residues with an end cap or a label only (N-terminal biotin on a linker: ahx)
[3] = plain residues with an end cap or a label only (N-terminal biotin on a linker: gsgsgs; C-terminal amide)

GORASP1, Q9BQQ3, sequence (Q9BQQ3 1-208): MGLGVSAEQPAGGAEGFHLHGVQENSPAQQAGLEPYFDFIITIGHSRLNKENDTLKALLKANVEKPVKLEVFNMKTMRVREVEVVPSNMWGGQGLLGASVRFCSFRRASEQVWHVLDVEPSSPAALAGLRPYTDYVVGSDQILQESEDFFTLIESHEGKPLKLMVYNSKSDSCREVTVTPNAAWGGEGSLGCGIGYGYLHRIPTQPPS
GRID2IP_1, A4D2P6, sequence (A4D2P6 1-87): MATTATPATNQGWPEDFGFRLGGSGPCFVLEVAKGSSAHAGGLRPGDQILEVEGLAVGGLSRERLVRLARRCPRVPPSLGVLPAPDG
FRMPD2_3, Q68DX3, sequence (Q68DX3 1073-1166): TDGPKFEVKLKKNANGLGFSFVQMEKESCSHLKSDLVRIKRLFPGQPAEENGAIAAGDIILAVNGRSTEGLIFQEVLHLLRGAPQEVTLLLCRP
PDZRN4_1, Q6ZMN7, sequence (Q6ZMN7 213-318): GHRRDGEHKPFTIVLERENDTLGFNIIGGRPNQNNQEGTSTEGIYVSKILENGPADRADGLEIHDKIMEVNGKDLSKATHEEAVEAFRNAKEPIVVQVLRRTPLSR
TJP1_2, Q07157, sequence (Q07157 181-274): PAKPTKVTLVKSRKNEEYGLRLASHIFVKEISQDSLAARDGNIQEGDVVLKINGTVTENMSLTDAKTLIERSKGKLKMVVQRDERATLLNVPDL
GRIP2_3, Q9C0E4, sequence (Q9C0E4 238-339): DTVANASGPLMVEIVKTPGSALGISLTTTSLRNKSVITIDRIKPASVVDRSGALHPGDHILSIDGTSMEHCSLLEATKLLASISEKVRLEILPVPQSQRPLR
Inadl_8, Q8NI35, sequence (Q8NI35 1425-1530): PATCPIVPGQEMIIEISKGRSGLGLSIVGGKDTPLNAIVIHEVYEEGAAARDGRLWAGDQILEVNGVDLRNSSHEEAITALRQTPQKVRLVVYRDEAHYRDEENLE
IL16_1, Q14005, sequence (Q14005 210-306): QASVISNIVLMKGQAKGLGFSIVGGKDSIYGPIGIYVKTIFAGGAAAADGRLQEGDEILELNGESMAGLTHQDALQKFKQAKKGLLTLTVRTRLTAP
HTRA2, O43464, sequence (O43464 355-458): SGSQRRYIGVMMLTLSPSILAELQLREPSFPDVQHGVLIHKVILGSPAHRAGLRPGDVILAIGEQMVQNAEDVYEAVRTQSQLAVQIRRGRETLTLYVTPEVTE
GRIP2_5, Q9C0E4, sequence (Q9C0E4 544-642): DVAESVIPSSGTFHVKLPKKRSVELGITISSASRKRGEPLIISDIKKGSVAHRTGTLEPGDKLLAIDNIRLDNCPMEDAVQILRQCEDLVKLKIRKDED
IL16_3, Q14005, sequence (Q14005 1107-1207): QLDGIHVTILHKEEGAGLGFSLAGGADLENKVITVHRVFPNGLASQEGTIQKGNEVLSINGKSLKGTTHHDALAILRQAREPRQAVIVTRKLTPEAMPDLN
DLG4_3, P78352, sequence (P78352 306-403): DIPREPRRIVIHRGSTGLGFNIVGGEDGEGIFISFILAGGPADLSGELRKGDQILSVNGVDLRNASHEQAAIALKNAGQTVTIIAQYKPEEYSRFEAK
CASK, O14936, sequence (O14936 487-570): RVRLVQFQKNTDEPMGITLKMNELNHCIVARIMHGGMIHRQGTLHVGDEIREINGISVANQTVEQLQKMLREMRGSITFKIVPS
LNX1_1, Q8TBB1, sequence (Q8TBB1 261-371): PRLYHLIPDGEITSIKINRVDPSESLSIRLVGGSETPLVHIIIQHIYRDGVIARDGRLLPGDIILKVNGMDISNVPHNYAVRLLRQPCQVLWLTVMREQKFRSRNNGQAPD
MAGI1_2, Q96QZ7, sequence (Q96QZ7 456-580): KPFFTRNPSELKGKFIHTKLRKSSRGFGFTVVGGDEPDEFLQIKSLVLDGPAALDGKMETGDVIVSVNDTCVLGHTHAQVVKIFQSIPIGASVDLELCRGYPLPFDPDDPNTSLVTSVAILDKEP
NHERF4_4, Q86UT5, sequence (Q86UT5 464-550): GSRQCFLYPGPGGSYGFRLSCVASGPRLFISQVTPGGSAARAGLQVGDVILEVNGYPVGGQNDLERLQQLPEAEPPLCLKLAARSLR
PTPN3, P26045, sequence (P26045 505-587): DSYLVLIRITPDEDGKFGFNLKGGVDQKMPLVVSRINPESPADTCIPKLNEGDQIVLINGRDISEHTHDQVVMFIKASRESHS

B1: DLGAP4, Q9Y2H0 (peptide)
chain: IYVPEAQTRL
pKd (PTPN3, P26045; [1]): 4.38 | pKd (DFNB31_2, Q9P202; [1]): below the threshold | pKd (GORASP2, Q9H8Y8; [1]): below the threshold | pKd (SYNJ2BP, P57105; [1]): below the threshold | pKd (NHERF4_4, Q86UT5; [1]): below the threshold | pKd (DLG3_1, Q92796; [1]): below the threshold | pKd (GRIP1_3, Q9Y3R0; [1]): below the threshold | pKd (MAGI1_2, Q96QZ7; [1]): below the threshold | pKd (TJP1_2, Q07157; [1]): below the threshold | pKd (PDZRN4_1, Q6ZMN7; [1]): 4.08 | pKd (HTRA2, O43464; [1]): below the threshold | pKd (GRIP2_5, Q9C0E4; [1]): below the threshold | pKd (LNX1_1, Q8TBB1; [1]): below the threshold | pKd (IL16_1, Q14005; [1]): below the threshold | pKd (Inadl_8, Q8NI35; [1]): below the threshold | pKd (APBA2_2, Q99767; [1]): below the threshold | pKd (TX1BP3, O14907; [1]): below the threshold | pKd (CASK, O14936; [1]): below the threshold | pKd (PDZD7_3, Q9H5P4; [1]): 4.31 | pKd (SNTG1, Q9NSN8; [1]): below the threshold | pKd (IL16_3, Q14005; [1]): below the threshold | pKd (GRID2IP_1, A4D2P6; [1]): below the threshold | pKd (GORASP1, Q9BQQ3; [1]): below the threshold | pKd (MPDZ_10, O75970; [1]): below the threshold | pKd (DLG4_3, P78352; [1]): below the threshold | pKd (FRMPD2_3, Q68DX3; [1]): below the threshold | pKd (MPDZ_5, O75970; [1]): below the threshold | pKd (GRIP2_3, Q9C0E4; [1]): below the threshold

B2: CNKSR2, Q8WXI2 (peptide)
chain: HTHSYIETHV
pKd (PTPN3, P26045; [2]): 4.58 | pKd (DFNB31_2, Q9P202; [2]): 3.76 | pKd (GORASP2, Q9H8Y8; [2]): below the threshold | pKd (SYNJ2BP, P57105; [2]): 5.02 | pKd (NHERF4_4, Q86UT5; [2]): below the threshold | pKd (DLG3_1, Q92796; [2]): 4.08 | pKd (GRIP1_3, Q9Y3R0; [2]): below the threshold | pKd (MAGI1_2, Q96QZ7; [2]): 3.9 | pKd (TJP1_2, Q07157; [2]): below the threshold | pKd (PDZRN4_1, Q6ZMN7; [2]): below the threshold | pKd (HTRA2, O43464; [2]): below the threshold | pKd (GRIP2_5, Q9C0E4; [2]): below the threshold | pKd (LNX1_1, Q8TBB1; [2]): 3.85 | pKd (IL16_1, Q14005; [2]): 3.9 | pKd (Inadl_8, Q8NI35; [2]): below the threshold | pKd (APBA2_2, Q99767; [2]): below the threshold | pKd (TX1BP3, O14907; [2]): 5.47 | pKd (CASK, O14936; [2]): below the threshold | pKd (PDZD7_3, Q9H5P4; [2]): 4.51 | pKd (SNTG1, Q9NSN8; [2]): 4.9 | pKd (IL16_3, Q14005; [2]): below the threshold | pKd (GRID2IP_1, A4D2P6; [2]): below the threshold | pKd (GORASP1, Q9BQQ3; [2]): below the threshold | pKd (MPDZ_10, O75970; [2]): below the threshold | pKd (DLG4_3, P78352; [2]): 3.74 | pKd (FRMPD2_3, Q68DX3; [2]): 3.87 | pKd (MPDZ_5, O75970; [2]): below the threshold | pKd (GRIP2_3, Q9C0E4; [2]): below the threshold

B3: LRP4, O75096 (peptide)
chain: ERKLSSESQV
pKd (PTPN3, P26045; [1]): 4.61 | pKd (DFNB31_2, Q9P202; [1]): below the threshold | pKd (GORASP2, Q9H8Y8; [1]): 4.39 | pKd (SYNJ2BP, P57105; [1]): 4.78 | pKd (NHERF4_4, Q86UT5; [1]): below the threshold | pKd (DLG3_1, Q92796; [1]): 3.81 | pKd (GRIP1_3, Q9Y3R0; [1]): below the threshold | pKd (MAGI1_2, Q96QZ7; [1]): 4.01 | pKd (TJP1_2, Q07157; [1]): below the threshold | pKd (PDZRN4_1, Q6ZMN7; [1]): below the threshold | pKd (HTRA2, O43464; [1]): below the threshold | pKd (GRIP2_5, Q9C0E4; [1]): below the threshold | pKd (LNX1_1, Q8TBB1; [1]): below the threshold | pKd (IL16_1, Q14005; [1]): 3.59 | pKd (Inadl_8, Q8NI35; [1]): below the threshold | pKd (APBA2_2, Q99767; [1]): below the threshold | pKd (TX1BP3, O14907; [1]): 4.27 | pKd (CASK, O14936; [1]): below the threshold | pKd (PDZD7_3, Q9H5P4; [1]): below the threshold | pKd (SNTG1, Q9NSN8; [1]): 4.37 | pKd (IL16_3, Q14005; [1]): below the threshold | pKd (GRID2IP_1, A4D2P6; [1]): below the threshold | pKd (GORASP1, Q9BQQ3; [1]): below the threshold | pKd (MPDZ_10, O75970; [1]): below the threshold | pKd (DLG4_3, P78352; [1]): below the threshold | pKd (FRMPD2_3, Q68DX3; [1]): below the threshold | pKd (MPDZ_5, O75970; [1]): below the threshold | pKd (GRIP2_3, Q9C0E4; [1]): below the threshold

B4: AXIN1_int, O15169 (peptide)
chain: TLSLTDSSVDGIPPYR
pKd (PTPN3, P26045; [3]): 3.83 | pKd (DFNB31_2, Q9P202; [3]): below the threshold | pKd (GORASP2, Q9H8Y8; [3]): below the threshold | pKd (SYNJ2BP, P57105; [3]): 4.52 | pKd (NHERF4_4, Q86UT5; [3]): below the threshold | pKd (DLG3_1, Q92796; [3]): below the threshold | pKd (GRIP1_3, Q9Y3R0; [3]): below the threshold | pKd (MAGI1_2, Q96QZ7; [3]): below the threshold | pKd (TJP1_2, Q07157; [3]): below the threshold | pKd (PDZRN4_1, Q6ZMN7; [3]): below the threshold | pKd (HTRA2, O43464; [3]): below the threshold | pKd (GRIP2_5, Q9C0E4; [3]): below the threshold | pKd (LNX1_1, Q8TBB1; [3]): below the threshold | pKd (IL16_1, Q14005; [3]): 3.48 | pKd (Inadl_8, Q8NI35; [3]): below the threshold | pKd (APBA2_2, Q99767; [3]): below the threshold | pKd (TX1BP3, O14907; [3]): 3.78 | pKd (CASK, O14936; [3]): below the threshold | pKd (PDZD7_3, Q9H5P4; [3]): below the threshold | pKd (SNTG1, Q9NSN8; [3]): below the threshold | pKd (IL16_3, Q14005; [3]): below the threshold | pKd (GRID2IP_1, A4D2P6; [3]): below the threshold | pKd (GORASP1, Q9BQQ3; [3]): below the threshold | pKd (MPDZ_10, O75970; [3]): below the threshold | pKd (DLG4_3, P78352; [3]): below the threshold | pKd (FRMPD2_3, Q68DX3; [3]): below the threshold | pKd (MPDZ_5, O75970; [3]): below the threshold | pKd (GRIP2_3, Q9C0E4; [3]): below the threshold
